# According to paper PMC3587310 (Biochemistry, 2013):
# B1: S. elongatus KaiC A422V mutant protein (natural protein, Synechococcus elongatus, UniProt Q79PF4 1-519, looked up)
# chain: MTSAEMTSPNNNSEHQAIAKMRTMIEGFDDISHGGLPIGRSTLVSGTSGTGKTLFSIQFLYNGIIEFDEPGVFVTFEETPQDIIKNARSFGWDLAKLVDEGKLFILDASPDPEGQEVVGGFDLSALIERINYAIQKYRARRVSIDSVTSVFQQYDASSVVRRELFRLVARLKQIGATTVMTTERIEEYGPIARYGVEEFVSDNVVILRNVLEGERRRRTLEILKLRGTSHMKGEYPFTITDHGINIFPLGAMRLTQRSSNVRVSSGVVRLDEMCGGGFFKDSIILATGATGTGKTLLVSRFVENACANKERAILFAYEESRAQLLRNAYSWGMDFEEMERQNLLKIVCAYPESAGLEDHLQIIKSEINDFKPARIAIDSLSALARGVSNNAFRQFVIGVTGYAKQEEITGLFTNTSDQFMGVHSITDSHISTITDTIILLQYVEIRGEMSRAINVFKMRGSWHDKAIREFMISDKGPDIKDSFRNFERIISGSPTRITVDEKSELSRIVRGVQEKGPES
# modifications: phosphothreonine at T432 in all six subunits; S431 not phosphorylated
# Target: the molecule itself
# Experiment: crystal structure
protein,measurement,value
B1,stoichiometry N,6
